How the values were obtained:
[1] = substrate: C/C=C/C(=O)SCCNC(=O)CCNC(=O)[C@H](O)C(C)(C)COP(=O)(O)OP(=O)(O)OC[C@H]1O[C@@H](n2cnc3c(N)ncnc32)[C@H](O)[C@@H]1OP(=O)(O)O; assay: UHPLC of 3-hydroxybutyryl-CoA formed; type: biochemical, Metallosphaera sedula; conditions: 100 mM Tris-HCl pH 7.8, 65°C
Text: UHPLC of 3-hydroxybutyryl-CoA formed on Msed_0566

[2] = substrate: CCCCC/C=C/C(=O)SCCNC(=O)CCNC(=O)[C@H](O)C(C)(C)COP(=O)(O)OP(=O)(O)OC[C@H]1O[C@@H](n2cnc3c(N)ncnc32)[C@H](O)[C@@H]1OP(=O)(O)O; assay: UHPLC of 3-hydroxyoctanoyl-CoA formed; type: biochemical, Metallosphaera sedula; conditions: 100 mM Tris-HCl pH 7.8, 65°C
Text: UHPLC of 3-hydroxyoctanoyl-CoA formed on Msed_0566

[3] = substrate: C=C(C)C(=O)SCCNC(=O)CCNC(=O)[C@H](O)C(C)(C)COP(=O)(O)OP(=O)(O)OC[C@H]1O[C@@H](n2cnc3c(N)ncnc32)[C@H](O)[C@@H]1OP(=O)(O)O; assay: UHPLC of 3-hydroxy-2-methylpropionyl-CoA formed; type: biochemical, Metallosphaera sedula; conditions: 100 mM Tris-HCl pH 7.8, 65°C
Text: UHPLC of 3-hydroxy-2-methylpropionyl-CoA formed on Msed_0566

[4] = substrate: C=CC(=O)SCCNC(=O)CCNC(=O)[C@H](O)C(C)(C)COP(=O)(O)OP(=O)(O)OC[C@H]1O[C@@H](n2cnc3c(N)ncnc32)[C@H](O)[C@@H]1OP(=O)(O)O; assay: UHPLC of 3-hydroxypropionyl-CoA formed; type: biochemical, Metallosphaera sedula; conditions: 100 mM Tris-HCl pH 7.8, 65°C
Text: UHPLC of 3-hydroxypropionyl-CoA formed on Msed_0566

[5] = substrate: C=CC(=O)SCCNC(=O)CCNC(=O)[C@H](O)C(C)(C)COP(=O)(O)OP(=O)(O)OC[C@H]1O[C@@H](n2cnc3c(N)ncnc32)[C@H](O)[C@@H]1OP(=O)(O)O; assay: UHPLC of 3-hydroxypropionyl-CoA formed; type: biochemical, Nitrosopumilus maritimus; conditions: 100 mM Tris-HCl pH 7.8, 30°C
Text: UHPLC of 3-hydroxypropionyl-CoA formed on Nmar_1308

[6] = substrate: C/C=C/C(=O)SCCNC(=O)CCNC(=O)[C@H](O)C(C)(C)COP(=O)(O)OP(=O)(O)OC[C@H]1O[C@@H](n2cnc3c(N)ncnc32)[C@H](O)[C@@H]1OP(=O)(O)O; assay: UHPLC of 3-hydroxybutyryl-CoA formed; type: biochemical, Nitrosopumilus maritimus; conditions: 100 mM Tris-HCl pH 7.8, 30°C
Text: UHPLC of 3-hydroxybutyryl-CoA formed on Nmar_1308

[7] = substrate: CCCCC/C=C/C(=O)SCCNC(=O)CCNC(=O)[C@H](O)C(C)(C)COP(=O)(O)OP(=O)(O)OC[C@H]1O[C@@H](n2cnc3c(N)ncnc32)[C@H](O)[C@@H]1OP(=O)(O)O; assay: UHPLC of 3-hydroxyoctanoyl-CoA formed; type: biochemical, Nitrosopumilus maritimus; conditions: 100 mM Tris-HCl pH 7.8, 30°C
Text: UHPLC of 3-hydroxyoctanoyl-CoA formed on Nmar_1308

[8] = substrate: CC(C)(COP(=O)(O)OP(=O)(O)OC[C@H]1O[C@@H](n2cnc3c(N)ncnc32)[C@H](O)[C@@H]1OP(=O)(O)O)[C@@H](O)C(=O)NCCC(=O)NCCSC(=O)CCO; assay: dehydration coupled to Ccr, UHPLC; type: biochemical, Nitrosopumilus maritimus; conditions: 100 mM Tris-HCl pH 7.8, 30°C, 1 mM NADPH, 50 mM NaHCO3, Ccr
Text: (§1) dehydration coupled to Ccr, UHPLC on Nmar_1308

[9] = substrate: C[C@H](O)CC(=O)SCCNC(=O)CCNC(=O)[C@H](O)C(C)(C)COP(=O)(O)OP(=O)(O)OC[C@H]1O[C@@H](n2cnc3c(N)ncnc32)[C@H](O)[C@@H]1OP(=O)(O)O; assay: dehydration coupled to Ccr, UHPLC; type: biochemical, Nitrosopumilus maritimus; conditions: 100 mM Tris-HCl pH 7.8, 30°C, 1 mM NADPH, 50 mM NaHCO3, Ccr
Text: as §1

[10] = substrate: CCCCC/C=C/C(=O)SCCNC(=O)CCNC(=O)[C@H](O)C(C)(C)COP(=O)(O)OP(=O)(O)OC[C@H]1O[C@@H](n2cnc3c(N)ncnc32)[C@H](O)[C@@H]1OP(=O)(O)O; assay: UHPLC of 3-hydroxyoctanoyl-CoA formed; type: biochemical, Metallosphaera sedula; conditions: 100 mM Tris-HCl pH 7.8, 65°C; remark: listed apart in the source
Text: UHPLC of 3-hydroxyoctanoyl-CoA formed on Msed_2001

[11] = substrate: CC(C)(COP(=O)(O)OP(=O)(O)OC[C@H]1O[C@@H](n2cnc3c(N)ncnc32)[C@H](O)[C@@H]1OP(=O)(O)O)[C@@H](O)C(=O)NCCC(=O)NCCSC(=O)CCO; assay: dehydration coupled to Ccr, UHPLC; type: biochemical, Metallosphaera sedula; conditions: 100 mM Tris-HCl pH 7.8, 42°C, 1 mM NADPH, 50 mM NaHCO3, Ccr
Text: (§2) dehydration coupled to Ccr, UHPLC on Msed_2001

[12] = substrate: C[C@H](O)CC(=O)SCCNC(=O)CCNC(=O)[C@H](O)C(C)(C)COP(=O)(O)OP(=O)(O)OC[C@H]1O[C@@H](n2cnc3c(N)ncnc32)[C@H](O)[C@@H]1OP(=O)(O)O; assay: dehydration coupled to Ccr, UHPLC; type: biochemical, Metallosphaera sedula; conditions: 100 mM Tris-HCl pH 7.8, 42°C, 1 mM NADPH, 50 mM NaHCO3, Ccr
Text: as §2

[13] = substrate: C=CC(=O)SCCNC(=O)CCNC(=O)[C@H](O)C(C)(C)COP(=O)(O)OP(=O)(O)OC[C@H]1O[C@@H](n2cnc3c(N)ncnc32)[C@H](O)[C@@H]1OP(=O)(O)O; assay: UHPLC of 3-hydroxypropionyl-CoA formed; type: biochemical, Metallosphaera sedula; conditions: 100 mM Tris-HCl pH 7.8, 65°C; remark: listed apart in the source
Text: UHPLC of 3-hydroxypropionyl-CoA formed on Msed_2001

[14] = substrate: C/C=C/C(=O)SCCNC(=O)CCNC(=O)[C@H](O)C(C)(C)COP(=O)(O)OP(=O)(O)OC[C@H]1O[C@@H](n2cnc3c(N)ncnc32)[C@H](O)[C@@H]1OP(=O)(O)O; assay: UHPLC of 3-hydroxybutyryl-CoA formed; type: biochemical, Metallosphaera sedula; conditions: 100 mM Tris-HCl pH 7.8, 65°C; remark: listed apart in the source
Text: UHPLC of 3-hydroxybutyryl-CoA formed on Msed_2001

[15] = substrate: C=CC(=O)SCCNC(=O)CCNC(=O)[C@H](O)C(C)(C)COP(=O)(O)OP(=O)(O)OC[C@H]1O[C@@H](n2cnc3c(N)ncnc32)[C@H](O)[C@@H]1OP(=O)(O)O; assay: UHPLC of 3-hydroxypropionyl-CoA formed; type: biochemical, Syntrophothermus lipocalidus; conditions: 100 mM Tris-HCl pH 7.8, 42°C
Text: UHPLC of 3-hydroxypropionyl-CoA formed on Slip_2089

[16] = substrate: C/C=C/C(=O)SCCNC(=O)CCNC(=O)[C@H](O)C(C)(C)COP(=O)(O)OP(=O)(O)OC[C@H]1O[C@@H](n2cnc3c(N)ncnc32)[C@H](O)[C@@H]1OP(=O)(O)O; assay: UHPLC of 3-hydroxybutyryl-CoA formed; type: biochemical, Syntrophothermus lipocalidus; conditions: 100 mM Tris-HCl pH 7.8, 42°C
Text: UHPLC of 3-hydroxybutyryl-CoA formed on Slip_2089

[17] = substrate: CCCCC/C=C/C(=O)SCCNC(=O)CCNC(=O)[C@H](O)C(C)(C)COP(=O)(O)OP(=O)(O)OC[C@H]1O[C@@H](n2cnc3c(N)ncnc32)[C@H](O)[C@@H]1OP(=O)(O)O; assay: UHPLC of 3-hydroxyoctanoyl-CoA formed; type: biochemical, Syntrophothermus lipocalidus; conditions: 100 mM Tris-HCl pH 7.8, 42°C
Text: UHPLC of 3-hydroxyoctanoyl-CoA formed on Slip_2089

[18] = substrate: C=C(C)C(=O)SCCNC(=O)CCNC(=O)[C@H](O)C(C)(C)COP(=O)(O)OP(=O)(O)OC[C@H]1O[C@@H](n2cnc3c(N)ncnc32)[C@H](O)[C@@H]1OP(=O)(O)O; assay: UHPLC of 3-hydroxy-2-methylpropionyl-CoA formed; type: biochemical, Syntrophothermus lipocalidus; conditions: 100 mM Tris-HCl pH 7.8, 42°C
Text: UHPLC of 3-hydroxy-2-methylpropionyl-CoA formed on Slip_2089

[19] = substrate: CC(C)(COP(=O)(O)OP(=O)(O)OC[C@H]1O[C@@H](n2cnc3c(N)ncnc32)[C@H](O)[C@@H]1OP(=O)(O)O)[C@@H](O)C(=O)NCCC(=O)NCCSC(=O)CCO; assay: dehydration coupled to Ccr, UHPLC; type: biochemical, Syntrophothermus lipocalidus; conditions: 100 mM Tris-HCl pH 7.8, 42°C, 1 mM NADPH, 50 mM NaHCO3, Ccr
Text: (§3) dehydration coupled to Ccr, UHPLC on Slip_2089

[20] = substrate: C[C@H](O)CC(=O)SCCNC(=O)CCNC(=O)[C@H](O)C(C)(C)COP(=O)(O)OP(=O)(O)OC[C@H]1O[C@@H](n2cnc3c(N)ncnc32)[C@H](O)[C@@H]1OP(=O)(O)O; assay: dehydration coupled to Ccr, UHPLC; type: biochemical, Syntrophothermus lipocalidus; conditions: 100 mM Tris-HCl pH 7.8, 42°C, 1 mM NADPH, 50 mM NaHCO3, Ccr
Text: as §3

B1: Msed_0566 (Metallosphaera sedula DSM 5348) (protein)
chain: MDVILEKRKGYLLLTFNTGGRYNVFTTRFMIEMIDTLSEVEKIRDPHYLVIKGENGNFGAGADVKELLKANGDKEYAKVYFGHMKDLFVKMLSLNKVTIGLIEGVAYGASMELLLALDIVIAKRGTKFAAPGGKLGVFPPVLVSIGPYLLGHRTSRKLAMLGEELDTQGAINAGLIDYEVDDLEKGLLELLNRLKVMSPSAQVRMRKLILQSLIPHLEKAFDELATQVTSDEAREGISSFFSKTSPSWSSVGFS
notes: pET16b, His10-tagged, expressed in E. coli Rosetta 2 (DE3), Ni-NTA purified
Km [1]: 80 ± 30 µM
kcat/Km [1]: 19000 M⁻¹ s⁻¹
Km [2]: 180 ± 60 µM
kcat/Km [2]: 16000 M⁻¹ s⁻¹
Km [3]: 140 ± 30 µM
kcat/Km [3]: 2000 M⁻¹ s⁻¹
Km [4]: 37 ± 2 µM
kcat/Km [4]: 39000 M⁻¹ s⁻¹

B2: Nmar_1308 (Nitrosopumilus maritimus SCM1) (protein)
chain: MSLVTTSTSDGICTVKINRPDKLNAMNTDVAKELIKTFEELNHNDDVKVIILTGEGEKAFSAGADIEYMSKISADESVEYAKTGQLVTATVELVKQPTIAAVNGFALGGGCELAMSCDIRIAADTAKLGQPEVTIGVPPGWGGTQRLMRIVGIAKAKELVYTGKMIKAEEAKEIGLVNHVVPLASLQEEALKMAQQIAGNSTMGVQMSKVAINKGRNADLDTGLGLEILAWRNCFTHPDRQERMTAFVNKSKK
notes: as for B1
Km [5]: 710 ± 70 µM
Vmax [5]: 11400 ± 392 µmol/min/mg
kcat/Km [5]: 8.09e+06 M⁻¹ s⁻¹
Km [6]: 450 ± 30 µM
Vmax [6]: 3790 ± 111 µmol/min/mg
kcat/Km [6]: 4.25e+06 M⁻¹ s⁻¹
Km [7]: 120 ± 20 µM
Vmax [7]: 47 µmol/min/mg
kcat/Km [7]: 198000 M⁻¹ s⁻¹
Km [8]: 170 ± 30 µM
Vmax [8]: 38 µmol/min/mg
kcat/Km [8]: 113000 M⁻¹ s⁻¹
Km [9]: 360 ± 60 µM
Vmax [9]: 1520 ± 92 µmol/min/mg
kcat/Km [9]: 2.12e+06 M⁻¹ s⁻¹

B3: Msed_2001 (Metallosphaera sedula DSM 5348) (protein)
chain: MEFETIETKKEGNLFWITLNRPDKLNALNAKLLEELDRAVSQAESDPEIRVIIITGKGKAFCAGADITQFNQLTPAEAWKFSKKGREIMDKIEALSKPTIAMINGYALGGGLELALACDIRIAAEEAQLGLPEINLGIYPGYGGTQRLTRVIGKGRALEMMMTGDRIPGKDAEKYGLVNRVVPLANLEQETRKLAEKIAKKSPISLALIKEVVNRGLDSPLLSGLALESVGWGVVFSTEDKKEGVSAFLEKREPTFKGK
notes: pET16b, N-terminal His10-tag, expressed in E. coli Rosetta 2 (DE3), heat precipitation and Ni-NTA purified
Km [10]: 48 ± 5 µM
kcat/Km [10]: 3.94e+07 M⁻¹ s⁻¹
Km [11]: 160 ± 20 µM
kcat/Km [11]: 3.26e+06 M⁻¹ s⁻¹
Km [12]: 34 ± 4 µM
kcat/Km [12]: 4.38e+07 M⁻¹ s⁻¹
Km [13]: 140 ± 10 µM
kcat/Km [13]: 9.94e+07 M⁻¹ s⁻¹
Km [14]: 80 ± 10 µM
kcat/Km [14]: 3.16e+07 M⁻¹ s⁻¹

B4: Slip_2089 (Syntrophothermus lipocalidus DSM 12680) (protein)
chain: MEDKQKSVKCSIDDQGIAIVTINRPHALNALNREVFTELGKVFDELRDNPRARVVVLTGEGQKAFAAGSDITEMKECSVLEAREFAMLANRTQGKIETFPKPVIAAVNGFALGGGCEVAMACDIRIASSNAKFGQPEINLGIIPGGGGTQRLARLVGLGRAKELVYSGGIIDAQRAYEIGLVNKVVPAEALMSEALGLAAKIASKSMPVLMLAKVAFNHGFSMDLDKALQFEIECFAECFGTDDHTEGMSAFIERREPAFKDK
notes: as for B1
Km [15]: 400 ± 50 µM
kcat/Km [15]: 138000 M⁻¹ s⁻¹
Km [16]: 160 ± 20 µM
kcat/Km [16]: 143000 M⁻¹ s⁻¹
Km [17]: 210 ± 40 µM
kcat/Km [17]: 562000 M⁻¹ s⁻¹
Km [18]: 1010 ± 220 µM
kcat/Km [18]: 500 M⁻¹ s⁻¹
Km [19]: 350 ± 60 µM
kcat/Km [19]: 2000 M⁻¹ s⁻¹
Km [20]: 1310 ± 310 µM
kcat/Km [20]: 41000 M⁻¹ s⁻¹
